Test results published in US20210180049A1 (CHUGAI SEIYAKU KABUSHIKI KAISHA, priority 2013, published 2021).

Columns and labels:
[1] = Tm measurement by DSC
Experimental: Measurement by DSC was carried out by a method known to those skilled in the art.
DSC measurement was carried out by a method known to those skilled in the art.

[2] = type: binding; conditions: Biacore T200, 15° C.
Experimental: Kynurenine-dependent antibody 6RNMSC1-2_F02 obtained from the library was assessed for its binding to kynurenine and derivatives thereof using Biacore T200 (GE Healthcare). The following […] molecules were assessed as derivatives: the kynurenine isomer D-kynurenine and the derivatives 3-hydroxy-DL-kynurenine, 4-(4-methylphenyl)-4-oxobutyric acid, R00447436-000-001, RO0635389-000-001, R00438566-001-001, and RO0635390-000-001. The chemical structure of each compound is shown below.
An appropriate amount of protein A (Invitrogen) was immobilized onto Sensor chip CM4 (GE Healthcare) by the amine coupling method. The antibody of interest was captured thereon, and the antigen kynurenine and derivatives thereof were allowed to interact. The running buffer used was 50 mmol/L Tris-HCl, 150 mmol/L NaCl, 0.02% (w/v) Tween 20, 5% DMSO, pH 7.6. All measurements were carried out at 15° C. The antigens were diluted with the running buffer.
Then, the running buffer was run at a flow rate of 30 μL/min for 60 seconds to observe the dissociation of antigens from the antibody. Kinetic parameters, the association rate constant ka (1/Ms) and the dissociation rate constant kd (l/s), were calculated based on the sensorgrams obtained by the measurements. The dissociation constant KD (M) was calculated from these constants. Each parameter was calculated using Biacore T200 Evaluation Software (GE Healthcare).

[3] = molecular target: T1, human IL-6 receptor (hIL-6R) (Homo sapiens, UniProt P08887); assay: IgG ELISA for hIL-6R binding in the presence of amino acids and amino acid metabolites (Table 14); conditions: IgG 2.5 μg/mL
T1 sequence (P08887 20-357): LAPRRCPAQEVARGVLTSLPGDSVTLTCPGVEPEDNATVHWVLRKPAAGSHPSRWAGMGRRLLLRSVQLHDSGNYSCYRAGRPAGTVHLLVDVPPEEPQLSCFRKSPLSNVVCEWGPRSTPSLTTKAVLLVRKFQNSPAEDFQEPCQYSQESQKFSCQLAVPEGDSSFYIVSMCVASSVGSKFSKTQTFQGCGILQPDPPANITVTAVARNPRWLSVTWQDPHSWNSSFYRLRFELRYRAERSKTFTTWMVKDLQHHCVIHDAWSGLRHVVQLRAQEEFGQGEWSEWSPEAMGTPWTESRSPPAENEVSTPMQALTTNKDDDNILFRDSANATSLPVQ
Experimental: Meanwhile, each of the amino acids and metabolites thereof were appropriately prepared at the concentrations shown in Table 14 using the buffers shown in Table 13. The antigen used was biotin-labeled hIL-6R.
First, a StreptaWell 96 microtiter plate (Roche) was coated with 100 μL of PBS containing biotin-labeled antigens at room temperature for one hour or longer. […] 100 μL of each of the purified IgGs prepared at 2.5 μg/mL using Sample Buffer containing small molecules at the final concentrations shown in Table 14 were added to each well, and the plate was let still at room temperature for one hour to allow each IgG to bind to the antigen present in each well. After washing with Wash Buffer containing amino acids and amino acid metabolites at the final concentrations shown in Table 14, HRP-conjugated anti-human IgG antibody (BIOSOURCE) diluted with Sample Buffer containing amino acids and amino acid metabolites was added to each well, and the plate was incubated for one hour. After washing with Wash Buffer containing the respective amino acids and amino acid metabolites, the chromogenic reaction of TMB single solution (ZYMED) added in each well was terminated by adding sulfuric acid. Then, the color development was measured by absorbance at 450 nm.

[4] = molecular target: T1, human IL-6 receptor (hIL-6R); assay: IgG ELISA for hIL-6R binding under small molecule conditions of Table 12; conditions: IgG 2.5 μg/mL
Experimental: Three types of obtained antibodies 6RNMSC1-2_F02, 6RNMSC1-3_G02, and GC413 were subjected to ELISA under the nine conditions shown in Table 12. The antigen used was biotin-labeled hIL-6R.
First, a StreptaWell 96 microtiter plate (Roche) was coated with 100 μL of PBS containing biotin-labeled hIL-6R at room temperature for one hour or longer. […] 100 μL of each of the purified IgGs prepared at 2.5 μg/mL using Sample Buffer containing small molecules at the final concentrations shown in Table 12 were added to each well, and the plate was let still at room temperature for one hour to allow each IgG to bind to biotin-labeled hIL-6R present in each well. After washing with Wash Buffer containing small molecules at the final concentrations shown in Table 12, HRP-conjugated anti-human IgG antibody (BIOSOURCE) diluted with Sample Buffer containing the same small molecules was added to each well and the plate was incubated for one hour. After washing with Wash Buffer containing respective small molecules, the chromogenic reaction of TMB single solution (ZYMED) added in each well was terminated by adding sulfuric acid. Then, the color development was measured by absorbance at 450 nm.

[5] = molecular target: T2, hIL-6R (Homo sapiens, UniProt P08887); assay: IgG ELISA for hIL-6R binding under conditions of Table 38; conditions: IgG 2.5 μg/mL
T2 sequence (P08887 20-357 limits assumed): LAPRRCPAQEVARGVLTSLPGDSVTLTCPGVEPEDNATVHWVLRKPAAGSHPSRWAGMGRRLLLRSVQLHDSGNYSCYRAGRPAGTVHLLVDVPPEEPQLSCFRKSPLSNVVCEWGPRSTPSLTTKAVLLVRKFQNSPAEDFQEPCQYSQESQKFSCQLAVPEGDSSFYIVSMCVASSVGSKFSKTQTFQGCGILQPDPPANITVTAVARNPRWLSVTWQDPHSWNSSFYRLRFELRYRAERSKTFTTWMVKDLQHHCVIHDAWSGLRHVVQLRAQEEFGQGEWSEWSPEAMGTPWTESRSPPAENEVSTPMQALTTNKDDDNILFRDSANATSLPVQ
Experimental: The selected six types of antibodies and the 6RNMSC1-2_F02 antibody were subjected to ELISA under the conditions indicated in Table 38.
First, a StreptaWell 96 microtiter plate (Roche) was coated with 100 μL of TBS containing biotin-labeled hIL-6R at room temperature for one or more hours. After removing biotin-labeled hIL-6R that are not bound to the plate by washing each well of the plate with TBST, the wells were blocked with 250 μL of Blocking Buffer (2% skim milk/TBS) for one or more hours. Blocking Buffer was removed from each well. 100 μL each of the purified IgGs prepared to 2.5 μg/mL using TBS under the conditions described in Table 38 were added to the wells, and the plate was allowed to stand at room temperature for one hour to allow each IgG to bind to biotin-labeled hIL-6R in each well. TBST was prepared to make the final concentrations shown in Table 38, and each well was washed with the prepared TBST. HRP-conjugated anti-human IgG antibody (BIOSOURCE) diluted with TBS containing the same small molecules was added to each well. The plate was incubated for one hour. After washing with TBST prepared to the final concentrations shown in Table 38, the chromogenic reaction of the solution in each well added with TMB single solution (ZYMED) was terminated by adding sulfuric acid. Then, the color development was measured by absorbance at 450 nm.

B1: 6RNMSC1-2_F02: antibody binding hIL-6R in the presence of kynurenine; heavy chain SEQ ID NO: 32, light chain SEQ ID NO: 33 (antibody, listed as Homo sapiens, V domains shown)
VH: QVQLVQSGAEVKKPGSSVKVSCKASGGTFSSYAISWVRQAPGQGLEWMGGIIPIFGTANYAQKFQGRVTITADESTSTAYMELSSLRSEDTAVYYCARDAPVVARPRGAFDIWGQGTMVTVSS
VL: DIVMTQTPLSSPVTLGQPASISCRSSQSLVHSDGNTYLSWLQQRPGQPPRLLIHEISNRFSGVPDRFSGSGAGTNFTLKISRVEAEDVGVYYCMQATQFPRTFGQGTKVEIK
- Tm [1]: 82.9 °C
- binding to 3-hydroxy-DL-kynurenine [2]: bind
- binding to RO0635389-000-001 [2]: bind
- binding to RO0635390-000-001 [2]: bind
- absorbance under condition 5 (3-hydroxy kynurenine solution) ([3]; 3-Hydroxykynurenine 1 mM): high absorbance similarly to that under condition 1
- absorbance under condition 7 (no small molecule) compared to condition 1 (kynurenine solution) [3]: significantly lower
- hIL-6R binding in the presence of tryptophan ([3]; Tryptophan 1 mM): does not bind to the antigen hIL-6R
- absorbance under condition 9 (no small molecule) compared to condition 8 (cocktail of all small molecules) ([4]; absorbance at 450 nm): significantly lower
- small molecule in whose presence the antibody binds hIL-6R ([4]; conditions 1-9 of Table 12, absorbance at 450 nm): binds to the antigen hIL-6R in the presence of kynurenine
- absorbance under condition 2 or 3 as compared to condition 1 (kynurenine-specific binding to biotin-labeled hIL-6R) [5]: markedly low
